Series [1] has as its target TDP-43 NTD NTD (Homo sapiens) (UniProt Q13148). The series is described as follows: AUC. Particulars: cited from earlier work.
Series [2] deals with the molecule itself. The series is described as follows: SEC; 0.5 mg/mL (45 µM) NTD loaded, 0.0% SB3-10, Superdex 200 Increase 10/300 GL, 5 mM sodium phosphate, 50 mM NaCl, 1 mM DTT, pH 7.4, 4 °C; calibration with folded standards. A general note: Size exclusion chromatography separates by hydrodynamic size, large species first.

Take TDP-43 NTD NTD (from UniProt Q13148): the Kd – broadly, the equilibrium constant for the complex coming apart – in series [1] was 40 µM.

B1: N-terminal domain (NTD) of TAR DNA-binding protein 43 (TDP-43) (domain or fragment, UniProt Q13148 1-77, looked up)
chain: MSEYIRVTEDENDEPIEIPSEDDGTVLLSTVTAQFPGACGLRYRNPVSQCMRGVRLVEGILHAPDAGWGNLVYVVNY
notes: whole protein has 414 residues; also called TDP-43 NTD; native NTD; source: purified as previously described [24]
Turning to B1, the stoichiometry N (usually the number of molecules, sites or subunits per partner or assembly) in series [2] is around 2.

Values taken from PMC9268139, “Conversion of the Native N-Terminal Domain of TDP-43 into a Monomeric Alternative Fold with Lower Aggregation Propensity” (Molecules, 2022).
